Test results as given in article PMC9945446.

Biological target: DNMT1 (human) (UniProt P26358)
Test: EMSA
Conditions: 50 mM Tris-HCl pH 7.5, 100 mM KCl (or LiCl), 2.5 mM MgCl2, 0.1 mM ZnCl2, 2 mM BME, 0.05% NP40, 5% glycerol, 0.1 mg/mL BSA, 0.1 mg/mL yeast tRNA, 30 C 1 h

DNMT1 (human), sequence (P26358 whole entry): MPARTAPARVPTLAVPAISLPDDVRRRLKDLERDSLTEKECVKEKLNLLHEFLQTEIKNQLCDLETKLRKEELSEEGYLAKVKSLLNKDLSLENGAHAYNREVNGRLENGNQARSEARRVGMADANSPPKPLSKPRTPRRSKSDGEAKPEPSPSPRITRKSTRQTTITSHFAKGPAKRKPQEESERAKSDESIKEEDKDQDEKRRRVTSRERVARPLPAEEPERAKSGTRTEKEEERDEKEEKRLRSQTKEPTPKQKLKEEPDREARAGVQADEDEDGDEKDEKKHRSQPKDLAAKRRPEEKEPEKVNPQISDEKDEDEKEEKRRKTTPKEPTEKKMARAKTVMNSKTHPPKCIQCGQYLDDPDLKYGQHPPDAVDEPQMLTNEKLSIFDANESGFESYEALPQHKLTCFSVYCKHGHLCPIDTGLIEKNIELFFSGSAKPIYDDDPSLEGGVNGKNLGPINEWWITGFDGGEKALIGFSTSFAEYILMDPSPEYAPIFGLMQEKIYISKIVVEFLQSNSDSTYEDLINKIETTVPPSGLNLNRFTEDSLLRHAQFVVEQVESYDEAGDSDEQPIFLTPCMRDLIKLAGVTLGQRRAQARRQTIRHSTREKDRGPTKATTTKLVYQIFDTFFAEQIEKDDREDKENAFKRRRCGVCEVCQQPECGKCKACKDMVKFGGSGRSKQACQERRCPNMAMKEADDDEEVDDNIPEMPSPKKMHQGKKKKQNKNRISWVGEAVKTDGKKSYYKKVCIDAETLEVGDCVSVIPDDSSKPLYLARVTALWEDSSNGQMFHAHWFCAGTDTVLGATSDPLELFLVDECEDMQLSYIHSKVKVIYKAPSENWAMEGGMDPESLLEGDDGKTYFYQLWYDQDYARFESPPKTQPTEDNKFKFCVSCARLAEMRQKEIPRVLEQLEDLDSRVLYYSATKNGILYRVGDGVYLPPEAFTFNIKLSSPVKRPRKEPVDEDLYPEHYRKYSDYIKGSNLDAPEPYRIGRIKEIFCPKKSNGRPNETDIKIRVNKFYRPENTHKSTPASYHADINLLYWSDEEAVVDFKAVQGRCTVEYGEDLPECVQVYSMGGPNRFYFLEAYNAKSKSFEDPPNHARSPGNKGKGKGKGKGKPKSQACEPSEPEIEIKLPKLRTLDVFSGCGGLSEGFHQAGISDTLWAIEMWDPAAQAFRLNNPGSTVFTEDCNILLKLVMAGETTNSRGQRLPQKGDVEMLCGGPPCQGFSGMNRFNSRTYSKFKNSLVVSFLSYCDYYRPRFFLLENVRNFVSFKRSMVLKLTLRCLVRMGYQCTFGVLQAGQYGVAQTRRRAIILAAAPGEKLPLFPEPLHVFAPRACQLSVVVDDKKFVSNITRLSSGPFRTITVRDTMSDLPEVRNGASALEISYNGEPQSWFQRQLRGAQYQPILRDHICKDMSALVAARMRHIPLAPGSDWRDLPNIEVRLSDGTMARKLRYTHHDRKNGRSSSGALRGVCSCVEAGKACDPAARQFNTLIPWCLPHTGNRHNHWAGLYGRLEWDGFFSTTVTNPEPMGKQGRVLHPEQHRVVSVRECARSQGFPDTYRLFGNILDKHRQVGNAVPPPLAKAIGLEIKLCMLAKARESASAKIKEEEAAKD

Sequence	binding signal (fold weaker than WT 3'UTR)	Kd [nM]
UUCUGCCCUCCCGUCACCCCUGUUUCUGGCACCAGGAAUCCCCAACAUGCACUGACACCACACUUUUAACAUGUCAAUCUGUCCGUUCACACACACAACACACAACACCCACAGCCUUGGCUGACAUGAAGCCACCACACAAGGUUCGCUUAUCAACUAAUGAUUUAGUGAUCAAAUUGUGCAGUACUUUGUGCAUUCUGGAUUUUAAAAGUUUUUUAUUAUGCAUUAUAUCAAAUCUACCACUGUAUGAGUGGAAAUUAAGACUUUAUGUAGUUUUUAUAUGUUGUAAUAUUUCUUCAAAUAAAUCUCUCCUAUAAACCA	3	
UUCUGCCCUCCCGUCACCCCUGUUUCUGGCACCAGGAAUCCCCAACAUGCACUGAUGUUGUGUUUUUAACAUGUCAAUCUGUCCGUUCACAUGUGUGGUACAUGGUGUUUGUGGCCUUGGCUGACAUGAAGCUGUUGUGUGAGGUUCGCUUAUCAACUAAUGAUUUAGUGAUCAAAUUGUGCAGUACUUUGUGCAUUCUGGAUUUUAAAAGUUUUUUAUUAUGCAUUAUAUCAAAUCUACCACUGUAUGAGUGGAAAUUAAGACUUUAUGUAGUUUUUAUAUGUUGUAAUAUUUCUUCAAAUAAAUCUCUCCUAUAAACCA [DNMT1 3'UTR WT]		69
UUCCACCCUCCCACCACCCCUACUUCCAGCACCAGGAAUCCCCAACACACACCAACAUCACAUUUUUAACACAUCAAUCUACCCACUCACACACACAACACACAACACUUACGGCCUCAGCCAACACAAAGCCAUCACACAAGACUCGCUUAUCAACUAACAAUUUAACGAUCAAAUCACACAACACUUUACGCAUUCCAGAUUUUAAAAACUUUUUAUUACACAUUAUAUCAAAUCUACCACCAUACAAGCAGAAAUUAAGACUUUACAUAACUUUUAUACAUUACAAUAUUUCUUCAAAUAAAUCUCUCCUAUAAACCA [DNMT1 3'UTR GU mutant (all GU/UG to AC/CA)]	2	
